Data from PMC9720954, “Blood–brain barrier penetrating neprilysin degrades monomeric amyloid-beta in a mouse model of Alzheimer’s disease” (Alzheimer's Research & Therapy, 2022).

Experiments:
Aβ1-42 aggregates = molecular target: T1, Aβ1-42 aggregates (Homo sapiens (synthetic peptide; …, UniProt P05067); test: ELISA; sandwich ELISA; 1 nM Aβ1-40 monomers or 1 nM Aβ1-42 aggregates held by coated rabbit polyclonal antibodies (C-terminal of Aβ, or Aβ1-42); serial dilutions of the recombinant proteins in 0.1% BSA, 0.05% Tween-20 in PBS, 2 h at RT; goat anti-mouse HRP; conditions: both partners purified
T1 construct: amyloid-beta 1-42, cut product of the amyloid precursor protein (APP); numbers count on: the Aβ peptide; Soluble aggregates; also called Aβ42; Aβ1-42 soluble aggregates; source: aggregates prepared as previously described [50]
T1 sequence (P05067 672-713): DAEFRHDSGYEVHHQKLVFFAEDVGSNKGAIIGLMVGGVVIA

Aβ1-40 monomers = molecular target: T2, Aβ1-40 monomers (Homo sapiens (synthetic peptide; …, UniProt P05067); test: as above; conditions: both partners purified
T2 construct: amyloid-beta 1-40, cut product of the amyloid precursor protein (APP); numbers count on: the Aβ peptide; Used as monomers, held on the plate by a rabbit polyclonal antibody against the C-terminus of Aβ; also called Aβ40; wt-Aβ1-40; source: bought: Innovagen
T2 sequence (P05067 672-711): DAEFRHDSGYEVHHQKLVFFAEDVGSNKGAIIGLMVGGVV

binding result (Aβ1-42 aggregates): no binding | binding result (Aβ1-40 monomers): no binding
B1: scFc-scFv8D3 (scFv, V domains shown)
VH: EVQLVESGGGLVQPGNSLTLSCVASGFTFSNYGMHWIRQAPKKGLEWIAMIYYDSSKMNYADTVKGRFTISRDNSKNTLYLEMNSLRSEDTAMYYCAVPTSHYVVDVWGQGVSVTVSS
VL: DIQMTQSPASLSASLEEIVTITCQASQDIGNWLAWYQQKPGKSPQLLIYGATSLADGVPSRFSGSRSGTQFSLKISRVQVEDIGIYYCLQAYNTPWTFGGGTKLELK
notes: first variable domain of scFv8D3, as in m1; (G4S)3 linker between the two parts of scFv8D3, written out from the printed formula; second variable domain of scFv8D3, as in m1; in-house linker between scFv8D3 and scFc; Lacks NEP; the control of the study; the signal peptide is cleaved on expression; Mw 81 kDa; also called scFv8D3-scFc; source: Expi293 cells, transfected (pcDNA3.4), purified …
